Test results reported in PMC8284805, “Mechanism underlying the DNA-binding preferences of the Vibrio cholerae and vibriophage VP882 VqmA quorum-sensing receptors”.

How the values were obtained:
[1] = molecular target: GST-DBDPhage (GST fused to the N-terminus of the VqmAPhage DNA-binding domain) (not stated | vibriophage VP882); test: SEC; gel filtration of the purified proteins, UV280 traces (S3D Fig)
[2] = molecular target: GST-DBDVc (GST fused to the N-terminus of the VqmAVc DNA-binding domain) (not stated | Vibrio cholerae); test: as above
[3] = test system: GST-DBDPhage (Vibriophage VP882); test: EMSA; conditions: EMSA: 25 nM DNA, 18.75-600 nM protein (dimer), 6% DNA retardation gel, SYBR Green; buffer, pH and temperature not given (cited protocol); EC50 values only in …
VqmAVc = VqmAVc (Vibrio cholerae, UniProt A0A0F0AZW0 1-246); test: EMSA; EMSA: 25 nM DNA, 18.75-600 nM protein (dimer), 6% DNA retardation gel, SYBR Green; buffer, pH and temperature not given (cited protocol); EC50 values only in S2A Fig; conditions: protein: recombinant; chain copies: 2; blunt
VqmAPhage [4] = molecular target: T1, VqmAPhage (Vibriophage VP882, UniProt A2I306 1-235); test: EMSA; half as strong as PvqmR*; EMSA: 25 nM DNA, 18.75-600 nM protein (dimer), 6% DNA retardation gel, SYBR Green; buffer, pH and temperature not given (cited protocol); EC50 values only in S2A Fig; conditions: protein: recombinant; chain copies: 2; blunt
T1 sequence: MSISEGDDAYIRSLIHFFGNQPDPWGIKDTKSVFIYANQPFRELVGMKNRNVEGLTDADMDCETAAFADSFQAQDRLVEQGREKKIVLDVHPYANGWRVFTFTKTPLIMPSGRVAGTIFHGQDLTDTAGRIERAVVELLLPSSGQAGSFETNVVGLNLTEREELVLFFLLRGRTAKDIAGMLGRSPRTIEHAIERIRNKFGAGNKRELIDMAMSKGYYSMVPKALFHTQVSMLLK

VqmAPhage [5] = molecular target: T1, VqmAPhage; test: EMSA; EMSA: 25 nM DNA, 18.75-600 nM protein (dimer), 6% DNA retardation gel, SYBR Green; buffer, pH and temperature not given (cited protocol); EC50 values only in S2A Fig; conditions: protein: recombinant; chain copies: 2; blunt

Question: With “GST-DBDPhage (GST fused to the N-terminus of the VqmAPhage DNA-binding domain)” as the molecule, how does the stoichiometry N [1] read?
Answer: The stoichiometry N was 2.

Question: With “GST-DBDVc (GST fused to the N-terminus of the VqmAVc DNA-binding domain)” as the molecule, how does the stoichiometry N [2] read?
Answer: Its stoichiometry N is 2.

Question: For “GAATACACTCCTTGTAAGTGATTGTTATAAGGAGCTTTATTCTTGATGCATATAAGAAATACCGATAGGGGGAAAAATACCCTGATAAGCAGCTGCTAAAATTGATAAATGTCAATAAGCGAAGGGGATGATGC (double strand) [Pqtip]”, which binding signal (fold stronger than PvqmR) [3] is on record?
Answer: The binding signal (fold stronger than PvqmR) was 5.

B1: Pqtip* (dsDNA)
DNA 1: GTGATTGTTATAAGGAGCTTTATTCTTGATGCATATAAGAAATACCGATAGGGGGATTTCCCCCCTGATAAGCAGCTGCTAAAATTGATAAATGTCAATA
DNA 2: TATTGACATTTATCAATTTTAGCAGCTGCTTATCAGGGGGGAAATCCCCCTATCGGTATTTCTTATATGCATCAAGAATAAAGCTCCTTATAACAATCAC
Question: What does the source list for B1?
Answer: binding result (VqmAVc): binds; binding result (VqmAPhage [4]): binds

B2: PvqmR* (dsDNA)
DNA 1: TCCGAGTATTGCGCGAGCTGTAATGTTGACTCAAACAATTATGCATAAAGGGGGGAAAAATACCCTTTTTCATTTGTACCGCGTTCGGTAAAGTACAAAC
DNA 2: GTTTGTACTTTACCGAACGCGGTACAAATGAAAAAGGGTATTTTTCCCCCCTTTATGCATAATTGTTTGAGTCAACATTACAGCTCGCGCAATACTCGGA
Question: With B2 as the molecule, how does the binding signal (VqmAPhage [5]) read?
Answer: Its binding signal is about 2 fold stronger than Pqtip*.
